From article PMC10790764 come the findings set out here.

In this assay the target is fusion protein F of hMPV A2-GFP (CAN97-83) on infected cells (human metapneumovirus A2 (CAN97-83)).

B1: sdHMPV12 (VHH)
VHH: QVQLQESGGGLVQPGGSLRLSCAASGVSLAWYAIGWFRQAPGKDREGISCISASDDSTYYRDSVKGRVTISRDNGRNTVLLQMNSLKPEDTAVYYCATLRANYCSGPPTLGPYLGQGTQVTVSS
B1 gave an other of 9 nM.
